Experimental data from the RNAGym collection of RNA variant scans (doi:10.7554/elife.80360).

B1: Hairpin Ribozyme (parent)
chain: GUCCUCUUUCACGUGCGCGUGAAAGAGAGAAGUGAACCAGAGAAACACACGUUGUGGUAUAUUACCUGGUA

Variants of: B1
Assay: self-cleavage, relative activity (ratio to wild type); higher = more cleavage; co-transcriptional

First: GUCCUCUUUCACGUGCGCGUGAACGAGAGAAGUGAACCAGAGAAACACACGUUCUGGUAUAUUACCUGGUA [A24C G54C]
Second: GUCCUCUUUCACGUGCGCGUGAACGAGAGAAGUGAACCAGAGAAACACACGUUUUGGUAUAUUACCUGGUA [A24C G54U]
The self-cleavage of the first is lower: 0.313 for the first, 0.534 for the second.

First: GUCCUCUUUCACGUGCGCGUGAACGAGAGAAGUGUACCAGAGAAACACACGUUGUGGUAUAUUACCUGGUA [A24C A35U]
Second: GUCCUCUUUCACGUGCGCGUGAAGGAGAGAAGUGAACCAGCGAAACACACGUUGUGGUAUAUUACCUGGUA [A24G A41C]
The self-cleavage of the first is higher: 0.938 for the first, 0.743 for the second.

Compared with GUCCUCUUUCACGUGCGCGUGAACGAGAGAAGUGAACCAGAGAAACACACGUUGUGGUAUAUUUCCUGGUA [A24C A64U], GUCCUCUUUCACGUGCGCGUGAAGGAGAGAAGUGAACCAGAGAAACACACGUUGUGGUAUGUUACCUGGUA [A24G A61G] is higher in self-cleavage: 0.172 for the first, 0.254 for the second.

First: GUCCUCUUUCACGUGCGCGUGAAGGAGAGAAGUGAACCAGAGAAACACACGUUGUGGUAUAUUACCUGGUC [A24G A71C]
Second: GUCCUCUUUCACGUGCGCGUGAAGGAGAGAAGUGAACCAGAGAAACACACGUUGUGGUAUAUUCCCUGGUA [A24G A64C]
The self-cleavage of the first is higher: 1.4 for the first, 0.17 for the second.

Going from GUCCUCUUUCACGUGCGCGUGAAGGAGAGAAGUGAACCCGAGAAACACACGUUGUGGUAUAUUACCUGGUA [A24G A39C] to GUCCUCUUUCACGUGCGCGUGAACGAGAGAAGUGAACCAGAGAAACACACGUUGUGGUAUAUUACCUGGUC [A24C A71C], the self-cleavage rises from 0.384 to 1.33.

Compared with GUCCUCUUUCACGUGCGCGUGAAGGAGAGAAGUGAACCAGAGAAACACAGGUUGUGGUAUAUUACCUGGUA [A24G C50G], GUCCUCUUUCACGUGCGCGUGAAGGAGAGAAGUGAACCAGAGAAACACAUGUUGUGGUAUAUUACCUGGUA [A24G C50U] is higher in self-cleavage: 0.136 for the first, 0.371 for the second.

Going from GUCCUCUUUCACGUGCGCGUGAACGAGAGAAGUGAACCAGAGAAACACACCUUGUGGUAUAUUACCUGGUA [A24C G51C] to GUCCUCUUUCACGUGCGCGUGAACGAGAGAAGUGAACCAGAGAAACACACAUUGUGGUAUAUUACCUGGUA [A24C G51A], the self-cleavage rises from 0.77 to 0.932.

First: GUCCUCUUUCACGUGCGCGUGAACGAGAGAAGUGAACCAGAGAAACACACGUUGUGGUAUAUUACAUGGUA [A24C C66A]
Second: GUCCUCUUUCACGUGCGCGUGAACGAGAGAAGUGAACCAGAGAAACACACGUUGUGGUAUAUUACGUGGUA [A24C C66G]
The self-cleavage of the first is higher: 0.187 for the first, 0.0731 for the second.

Going from GUCCUCUUUCACGUGCGCGUGAACGAGAGAAGUGAACCAGAGAAACACAUGUUGUGGUAUAUUACCUGGUA [A24C C50U] to GUCCUCUUUCACGUGCGCGUGAACGAGAGAAGUGAACCAGAGAAACACAAGUUGUGGUAUAUUACCUGGUA [A24C C50A], the self-cleavage falls from 0.418 to 0.103.

Going from GUCCUCUUUCACGUGCGCGUGAAGGAGAGAAGUGAACCAGAGAAAUACACGUUGUGGUAUAUUACCUGGUA [A24G C46U] to GUCCUCUUUCACGUGCGCGUGAAGGAGAGAAGUGAACCAGAGAAACACCCGUUGUGGUAUAUUACCUGGUA [A24G A49C], the self-cleavage rises from 0.0984 to 0.163.

First: GUCCUCUUUCACGUGCGCGUGAAGGUGAGAAGUGAACCAGAGAAACACACGUUGUGGUAUAUUACCUGGUA [A24G A26U]
Second: GUCCUCUUUCACGUGCGCGUGAAGGGGAGAAGUGAACCAGAGAAACACACGUUGUGGUAUAUUACCUGGUA [A24G A26G]
The self-cleavage of the first is higher: 0.661 for the first, 0.569 for the second.

Going from GUCCUCUUUCACGUGCGCGUGAAGGCGAGAAGUGAACCAGAGAAACACACGUUGUGGUAUAUUACCUGGUA [A24G A26C] to GUCCUCUUUCACGUGCGCGUGAACGAGAGAAGUGAACCAGAGAAACACACGUUGUGGUAUAUUACCCGGUA [A24C U67C], the self-cleavage falls from 0.367 to 0.208.

Compared with GUCCUCUUUCACGUGCGCGUGAACAAGAGAAGUGAACCAGAGAAACACACGUUGUGGUAUAUUACCUGGUA [A24C G25A], GUCCUCUUUCACGUGCGCGUGAACGAGAGAAGUGAACCAGAGAAACACACGUUGUGGUAAAUUACCUGGUA [A24C U60A] is higher in self-cleavage: 0.219 for the first, 0.76 for the second.

Compared with GUCCUCUUUCACGUGCGCGUGAACGAGAGAAGUGAACCAGAGAAACACACGUUGUGGUACAUUACCUGGUA [A24C U60C], GUCCUCUUUCACGUGCGCGUGAACGAGAGAAGUGAACCAGAGAAACACACGUUGUGGUAGAUUACCUGGUA [A24C U60G] is lower in self-cleavage: 0.972 for the first, 0.609 for the second.

First: GUCCUCUUUCACGUGCGCGUGAACGAGAGAAAUGAACCAGAGAAACACACGUUGUGGUAUAUUACCUGGUA [A24C G32A]
Second: GUCCUCUUUCACGUGCGCGUGAACGAGAGAACUGAACCAGAGAAACACACGUUGUGGUAUAUUACCUGGUA [A24C G32C]
The self-cleavage of the first is higher: 0.161 for the first, 0.131 for the second.

Compared with GUCCUCUUUCACGUGCGCGUGAACGAGAGAAGUGAACCAGAGAAACACACGUUGUGGUGUAUUACCUGGUA [A24C A59G], GUCCUCUUUCACGUGCGCGUGAACGAGAGAAGUGAACCACAGAAACACACGUUGUGGUAUAUUACCUGGUA [A24C G40C] is higher in self-cleavage: 0.0535 for the first, 0.185 for the second.

First: GUCCUCUUUCACGUGCGCGUGAACGAGAGAAGUGAACCAAAGAAACACACGUUGUGGUAUAUUACCUGGUA [A24C G40A]
Second: GUCCUCUUUCACGUGCGCGUGAAGGAGAGGAGUGAACCAGAGAAACACACGUUGUGGUAUAUUACCUGGUA [A24G A30G]
The self-cleavage of the first is higher: 0.335 for the first, 0.0908 for the second.

First: GUCCUCUUUCACGUGCGCGUGAACGAGAGAUGUGAACCAGAGAAACACACGUUGUGGUAUAUUACCUGGUA [A24C A31U]
Second: GUCCUCUUUCACGUGCGCGUGAACGAGAGACGUGAACCAGAGAAACACACGUUGUGGUAUAUUACCUGGUA [A24C A31C]
The self-cleavage of the first is lower: 0.107 for the first, 0.209 for the second.

Compared with GUCCUCUUUCACGUGCGCGUGAACGAUAGAAGUGAACCAGAGAAACACACGUUGUGGUAUAUUACCUGGUA [A24C G27U], GUCCUCUUUCACGUGCGCGUGAAGGAGAGAAGUGAACCAGAGAAACACACGUUGUGGUAUAUUAACUGGUA [A24G C65A] is higher in self-cleavage: 0.284 for the first, 0.706 for the second.
